According to patent publication US20240376170A1 (BRIGHT PEAK THERAPEUTICS, published 2024):
Bridges are numbered along the chain shown (N, C = ends). Primed or numbered codes have the meaning given here. [ ]: non-standard residue; d: D form. Ygp(4) = Tyr with amino-capped PEG8 (O-(8x polyethylene glycol-amino)-tyrosine); Yn3(4) = Tyr with azide-capped PEG9 (O-(9x polyethylene glycol-azido)-tyrosine); Ygp = O-(8x polyethylene glycol-amino)-tyrosine (Tyr, amino-capped PEG8); Yn3 = O-(9x polyethylene glycol-azido)-tyrosine (Tyr, azide-capped PEG9); PEG4′ = 4x polyethylene glycol; PEG9′ = 9x polyethylene glycol; hSer = N[C@@H](CCO)C(=O)O; Nle = CCCC[C@H](N)C(=O)O

T1: IL-2 receptor βγ complex (human, UniProt P14784 27-551; P31785 23-369)
T1 sequence (looked up) 1: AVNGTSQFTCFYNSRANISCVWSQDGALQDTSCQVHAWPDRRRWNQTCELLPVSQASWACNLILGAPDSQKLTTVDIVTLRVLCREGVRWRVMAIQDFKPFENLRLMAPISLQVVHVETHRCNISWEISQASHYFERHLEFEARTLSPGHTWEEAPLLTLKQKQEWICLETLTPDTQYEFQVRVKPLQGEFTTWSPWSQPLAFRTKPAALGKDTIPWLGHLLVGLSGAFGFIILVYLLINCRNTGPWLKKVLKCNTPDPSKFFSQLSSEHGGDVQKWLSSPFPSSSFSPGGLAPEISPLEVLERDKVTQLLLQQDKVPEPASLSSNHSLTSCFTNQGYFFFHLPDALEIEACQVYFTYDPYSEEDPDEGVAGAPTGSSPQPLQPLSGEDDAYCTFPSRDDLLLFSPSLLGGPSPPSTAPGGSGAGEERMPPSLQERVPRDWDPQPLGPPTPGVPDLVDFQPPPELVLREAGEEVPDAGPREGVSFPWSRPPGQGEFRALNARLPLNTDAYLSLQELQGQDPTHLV
T1 sequence (looked up) 2: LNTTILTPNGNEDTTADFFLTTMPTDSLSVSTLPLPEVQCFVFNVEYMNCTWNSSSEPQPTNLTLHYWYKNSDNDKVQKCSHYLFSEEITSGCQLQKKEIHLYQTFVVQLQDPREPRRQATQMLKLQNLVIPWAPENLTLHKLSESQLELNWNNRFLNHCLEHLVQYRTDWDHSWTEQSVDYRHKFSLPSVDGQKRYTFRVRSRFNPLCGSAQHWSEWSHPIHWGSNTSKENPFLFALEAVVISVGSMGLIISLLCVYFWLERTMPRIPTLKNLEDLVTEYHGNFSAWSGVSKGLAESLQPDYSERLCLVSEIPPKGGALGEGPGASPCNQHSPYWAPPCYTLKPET

T2: Avi-tag Fc with human IL-2R beta and IL-2R gamma attached (Acrobiosystems ACRB-ILG-H82F3-25UG) (human, UniProt P14784 27-239; P31785 23-262)
T2 construct: Bought; attached to the SAX2 biosensor; also called CD122 CD132; IL-2R βγ; not shown: Fc and Avi-tag
T2 sequence (looked up) 1: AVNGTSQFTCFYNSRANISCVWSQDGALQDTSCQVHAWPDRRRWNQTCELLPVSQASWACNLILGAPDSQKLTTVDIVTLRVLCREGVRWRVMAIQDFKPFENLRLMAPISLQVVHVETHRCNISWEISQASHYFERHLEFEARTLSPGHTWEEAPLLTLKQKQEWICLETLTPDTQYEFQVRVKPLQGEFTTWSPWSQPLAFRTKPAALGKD
T2 sequence (looked up) 2: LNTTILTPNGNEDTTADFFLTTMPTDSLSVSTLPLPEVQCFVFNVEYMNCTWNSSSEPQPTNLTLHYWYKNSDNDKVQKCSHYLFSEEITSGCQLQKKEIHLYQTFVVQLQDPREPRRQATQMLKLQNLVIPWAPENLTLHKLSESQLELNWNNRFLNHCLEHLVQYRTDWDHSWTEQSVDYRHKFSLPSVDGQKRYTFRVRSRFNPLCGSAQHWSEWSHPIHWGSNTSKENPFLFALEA

T3: recombinant human IL-2 receptor beta containing a His-tag and Avi-tag (human, UniProt P14784 27-239)
T3 construct: Bought; attached to the SAX2 biosensor; also called CD122; IL-2R β; not shown: His-tag and Avi-tag
T3 sequence (looked up): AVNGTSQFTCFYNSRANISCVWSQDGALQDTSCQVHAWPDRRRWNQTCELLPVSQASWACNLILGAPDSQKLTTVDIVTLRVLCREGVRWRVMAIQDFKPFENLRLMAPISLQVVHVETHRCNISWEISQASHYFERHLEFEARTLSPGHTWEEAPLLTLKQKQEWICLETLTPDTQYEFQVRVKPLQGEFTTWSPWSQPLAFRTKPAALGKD


Assays:
[1] = target: T1, IL-2 receptor βγ complex; test: cell-based or functional assay
[2] = target: T1, IL-2 receptor βγ complex; test: cell-based or functional assay; remark: listed apart in the source
[3] = target: T2, Avi-tag Fc with human IL-2R beta and …; test: BLI (Octet R8), receptor on SAX2 sensor
Method: (§1) Bilayer interferometry (BLI) assays were used to measure the binding constants between activatable IL-2 polypeptides (and activated versions thereof) to IL-2 receptor subunits or receptor complexes. BLI assays were conducted on an Octet® R8 instrument. Assay plates were 96 well, polypropylene, F-bottom (chimney well), black microplates (Greiner Bio-one, Cat. No: 655209). The biosensors were Octet® SAX2 (Sartorius, Cat. No: 18-5136). The assay buffer was 1X Kinetic Buffer (Sartorius, Cat. no: 18-5136) or Phosphate Buffered Saline (PBS) that contained 0.02% (v: v) Tween 20 (Polysorbate 20) and 0.1% (w/v) bovine serum albumin (BSA). The sensor was regenerated between measurements in 10 mM glycine pH 2.7 buffer.
(§2) Sensor attached receptors were either recombinant human IL-2 receptor beta containing a His-tag and Avi-tag™ (R&D Systems™) or an Avi-tag™ Fc with human IL-2R beta and IL-2R gamma attached (Acrobiosystems Cat. no: ACRB-ILG-H₈₂F3-25UG). Receptors were reconstituted from lyophilized powder to 500 μg/ml in PBS. Analytes were diluted in Kinetic buffer to 300 nM, then serially diluted to lower concentrations.

[4] = target: T3, recombinant human IL-2 receptor beta …; test: BLI (Octet R8), receptor on SAX2 sensor
Method: as §1, §2

Average EC50, pSTAT5 Assay (T cells) [1] | Average EC50, pSTAT5 Assay in NK cells [2] | Binder | further results
110 nM |  | CMP-304 (ligand, bridge N-29; not fully specified (N-terminus, bridges); ends not checked) PLGLAGAPTSSSTKKTQLQLEHLLLDLQEILNGINNYKNPKLTR[Nle]L[hSer][Yn3(4)]KF[Ygp(4)][Nle]PKKATELKHLQCLEEELKPLEEVL[hSer]LAQSKNFHLRPRDLISNINVIVLELKGSETTF[hSer]CEYADETATIVEFLNRWITFSQSIISTLT | 
97.9 nM |  | CMP-303 (ligand, bridge N-29; not fully specified (N-terminus, bridges); ends not checked) PLGLAGAPTSSSTKKTQLQLEHLLLDLQEILNGINNYKNPKLTR[Nle]L[hSer][Yn3(4)]KF[Ygp(4)][Nle]PKKATELKHLQCLEEELKPLEEVL[hSer]LAQSKNFHLRPRDLISNINVIVLELKGSETTF[hSer]CEYADETATIVEFLNRWITFSQSIISTLT | 
94.7 nM | 38.1 nM | CMP-300 (ligand, lactam N-31; ends not checked) GPLGLAG[PEG4′]APTSSSTKKTQLQLEHLLLDLQEILNGINNYKNPKLTR[Nle]L[hSer][Yn3(4)]KF[Ygp(4)][Nle]PKKATELKHLQCLEEELKPLEEVL[hSer]LAQSKNFHLRPRDLISNINVIVLELKGSETTF[hSer]CEYADETATIVEFLNRWITFSQSIISTLT | 
6.3 nM | 0.981 nM | CMP-168, MMP2 cleaved molecule (ligand, not fully specified; ends and bridges not checked; also: MMP2 cleaved, cleavage site and linker fragments on Lys9 and Glu23 side chains not given here) APTSSSTKKTQLQLEHLLLDLQEILNGINNYKNPKLTR[Nle]L[hSer][Yn3(4)]KF[Ygp(4)][Nle]PKKATELKHLQCLEEELKPLEEVL[hSer]LAQSKNFHLRPRDLISNINVIVLELKGSETTF[hSer]CEYADETATIVEFLNRWITFSQSIISTLT | 
63.4 nM |  | CMP-302 (ligand, lactam N-30; ends not checked) GPLGLAGAPTSSSTKKTQLQLEHLLLDLQEILNGINNYKNPKLTR[Nle]L[hSer][Yn3(4)]KF[Ygp(4)][Nle]PKKATELKHLQCLEEELKPLEEVL[hSer]LAQSKNFHLRPRDLISNINVIVLELKGSETTF[hSer]CEYADETATIVEFLNRWITFSQSIISTLT | 
 |  | CMP-136 (ligand, bridge N-37; not fully specified (bridges)) [PEG9′]PLGLAG[PEG9′]APTSSSTKKTQLQLEHLLLDLQ[Nle]ILNGIENYKNPKLTR[Nle]L[hSer][Yn3]KF[Ygp][Nle]PKKATELKHLQCLEEELKPLEEVL[hSer]LAQSKNFHLRPRDLISNINVIVLELKGSETTF[hSer]CEYADETATIVEFLNRWITFSQSIISTLT | Kd [3]: 0.0126 µM; koff [3]: 0.00498 s⁻¹; kon [3]: 396000 M⁻¹ s⁻¹; Kd [4]: 0.00844 µM; koff [4]: 0.00767 s⁻¹; kon [4]: 909000 M⁻¹ s⁻¹
144 nM | 53.9 nM | CMP-168 (ligand, bridge 9-23; not fully specified (bridges); ends not checked; also: sequence of the cleavable bridging peptide not given here) APTSSSTKKTQLQLEHLLLDLQEILNGINNYKNPKLTR[Nle]L[hSer][Yn3(4)]KF[Ygp(4)][Nle]PKKATELKHLQCLEEELKPLEEVL[hSer]LAQSKNFHLRPRDLISNINVIVLELKGSETTF[hSer]CEYADETATIVEFLNRWITFSQSIISTLT | 
1.73 nM | 0.379 nM | CMP-300, MMP2 cleaved molecule (ligand, not fully specified; ends and bridges not checked; also: cleaved by MMP2, product not given here, N-terminus linked to another sequence via PEG4, Glu23 side chain linked to another sequence) APTSSSTKKTQLQLEHLLLDLQEILNGINNYKNPKLTR[Nle]L[hSer][Yn3(4)]KF[Ygp(4)][Nle]PKKATELKHLQCLEEELKPLEEVL[hSer]LAQSKNFHLRPRDLISNINVIVLELKGSETTF[hSer]CEYADETATIVEFLNRWITFSQSIISTLT | 
128 nM |  | CMP-305 (ligand, bridge 15-23; not fully specified (bridges); also: further groups not given here) APTSSSTKKTQLQLEHLLLDLQKILNGINNYKNPKLTR[Nle]L[hSer][Yn3]KF[Ygp][Nle]PKKATELKHLQCLEEELKPLEEVL[hSer]LAQSKNFHLRPRDLISNINVIVLELKGSETTF[hSer]CEYADETATIVEFLNRWITFSQSIISTLT | 
3.26 nM |  | CMP-305, MMP2 cleaved molecule (ligand, also: m29 after MMP2 cleavage: Glu15-Lys23 cleavable peptide bridge cut, remnants on Glu15 and Lys23 not given here) APTSSSTKKTQLQLEHLLLDLQKILNGINNYKNPKLTR[Nle]L[hSer][Yn3]KF[Ygp][Nle]PKKATELKHLQCLEEELKPLEEVL[hSer]LAQSKNFHLRPRDLISNINVIVLELKGSETTF[hSer]CEYADETATIVEFLNRWITFSQSIISTLT | 
0.883 nM |  | CMP-301, MMP2 cleaved molecule (ligand, not fully specified; ends and bridges not checked; also: cleaved by MMP2, product not given here, N-terminus linked to another sequence via PEG9, Glu23 side chain linked to another sequence) APTSSSTKKTQLQLEHLLLDLQEILNGINNYKNPKLTR[Nle]L[hSer][Yn3(4)]KF[Ygp(4)][Nle]PKKATELKHLQCLEEELKPLEEVL[hSer]LAQSKNFHLRPRDLISNINVIVLELKGSETTF[hSer]CEYADETATIVEFLNRWITFSQSIISTLT | 
